Source: the supplement of paper PMC12667976
± gives the standard error.

B1: library; numbered along this chain (parent)
chain: MATDAALRRLLRLHRTEIAVAVDSAFPLLHALADHDVVPEDKFQETLHLKEKEGCPQAFHALLSWLLTQDSTAILDFWRVLFKDYNLERYGRLQPILDSFPKDVDLSQPRKGRKPPAVPKALVPPPRLPTKRKASEEARAAAPAALTPRGTASPGSQLKAKPPKKPESSAEQQRLPLGNGIQTMSASVQRAVAMSSGDVPGARGAVEGILIQQVFESGGSKKCIQVGGEFYTPSKFEDSGSGKNKARSSSGPKPLVRAKGAQGAAPGGGEARLGQQGSVPAPLALPSDPQLHQKNEDECAVCRDGGELICCDGCPRAFHLACLSPPLREIPSGTWRCSSCLQATVQEVQPRAEEPRPQEPPVETPLPPGLRSAGEEVRGPPGEPLAGMDTTLVYKHLPAPPSAAPLPGLDSSALHPLLCVGPEGQQNLAPGARCGVCGDGTDVLRCTHCAAAFHWRCHFPAGTSRPGTGLRCRSCSGDVTPAPVEGVLAPSPARLAPGPAKDDTASHEPALHRDDLESLLSEHTFDGILQWAIQSMARPAAPFPS

Variants of: B1
Test: AIRE transcriptional activation functional score (insulin promoter-GFP; nonsense median 0, synonymous median 1) (normalised score); higher = higher AIRE activity (more reporter activation)
Conditions: with insulin promoter-GFP reporter in HEK293
Outline: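 Integration of codon-optimized AIRE NNN-codon libraries (three regions) by Bxb1 recombinase was done in Flp-In T-REx HEK293 landing-pad cells containing an insulin core promoter-GFP reporter. Tile-sequencing covered the top 10% GFP cells and the unselected integrants, drawn from mCherry+, BFP− cells sorted at day 7 and grown 7 days. Functional score means the enrichment of a variant in select versus non-select, minus that of wild type. Variants with at least 10 counts per million in non-select were rescaled to nonsense median 0 and synonymous median 1, and the biological replicates were averaged.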

| Variant | AIRE transcriptional activation functional score |
| --- | --- |
| R257K | 0.866 ± 0.11 |
| R257T | 0.86 ± 0.26 |
| S135T | 2.07 ± 0.43 |
| G240M | 1.08 ± 0.075 |
| G435D | -0.0125 ± 0.24 |
| G435M | 0.379 ± 0.042 |
| Q225H | 0.951 ± 0.054 |
| T16R | -0.0166 ± 0.31 |
| T16H | -0.704 ± 0.84 |
| T16N | 0.597 ± 0.079 |
| D4F | 0.414 ± 0.23 |
| D4S | 0.199 ± 0.46 |
| S506I | 1.63 ± 0.2 |
| K161M | 0.88 ± 0.068 |
| H458P | 0.0561 ± 0.15 |
| P483M | 1.36 ± 0.045 |
| A246K | 0.609 ± 0.081 |
| A246P | 1.05 ± 0.29 |
| P56N | 0.0217 ± 0.061 |
| V420F | 1.03 ± 0.27 |
| A317V | 0.416 ± 0.25 |

| Variant | AIRE transcriptional activation functional score |
| --- | --- |
| A317D | 1.25 ± 0.057 |
| E51Y | -0.775 ± 0.19 |
| G268F | 1.38 ± 0.18 |
| G268S | 1.09 ± 0.39 |
| Q425H | 1.3 ± 0.16 |
| G155I | 0.209 ± 0.65 |
| T463R | 0.998 ± 0.24 |
| L417I | 0.855 ± 0.24 |
| R247T | 0.898 ± 0.24 |
| P544N | -0.709 ± 0.074 |
| G204F | -0.0648 ± 0.27 |
| P381C | 0.894 ± 0.15 |
| P381S | 0.87 ± 0.25 |
| A5N | 0.61 ± 0.13 |
| P126R | -0.0135 ± 0.24 |
| A413Q | 1.01 ± 0.047 |
| A413H | 0.905 ± 0.19 |
| G306H | 1.11 ± 0.041 |
| A500I | 1.1 ± 0.17 |
| L418T | 0.829 ± 0.11 |
| P289H | 1.22 ± 0.052 |

| Variant | AIRE transcriptional activation functional score |
| --- | --- |
| P289W | 1.43 ± 0.15 |
| P289R | 1.19 ± 0.28 |
| P289A | 0.95 ± 0.35 |
| G467D | 0.675 ± 0.16 |
| G467C | 0.822 ± 0.074 |
| G467V | 1.06 ± 0.32 |
| G467K | 0.889 ± 0.075 |
| K120I | 1.2 ± 0.15 |
| P365E | 1.33 ± 0.12 |
| S250E | 0.4 ± 0.58 |
| S250F | 1.13 ± 0.099 |
| S250N | 0.847 ± 0.16 |
| F100Q | 1.26 ± 0.24 |
| F82T | -0.086 ± 0.55 |
| V192A | 0.598 ± 0.16 |
| E167L | 1.76 ± 0.47 |
| P405R | 0.984 ± 0.21 |
| D389L | 0.218 ± 0.2 |
| A450P | 0.565 ± 0.12 |
| A450E | 1.24 ± 0.089 |
| P400E | 0.545 ± 0.17 |

| Variant | AIRE transcriptional activation functional score |
| --- | --- |
| D478P | 0.801 ± 0.34 |
| L511V | 0.838 ± 0.41 |
| H35N | 0.76 ± 0.11 |
| H35S | 0.352 ± 0.36 |
| D23L | -0.372 ± 0.55 |
| L285T | 0.845 ± 0.47 |
| L285V | 0.989 ± 0.16 |
| L397E | 0.622 ± 0.073 |
| V80G | 0.653 ± 0.33 |
| V80S | -0.226 ± 0.18 |
| E45T | -0.232 ± 0.066 |
| K395Y | 1.47 ± 0.13 |
| P282R | 0.839 ± 0.35 |
| A510G | 0.977 ± 0.22 |
| S64F | 0.0385 ± 0.17 |
| L444G | 1.27 ± 0.24 |
| E375Y | 1.51 ± 0.059 |
| E375P | 1.21 ± 0.16 |
| E375N | 1.89 ± 0.1 |
| R316G | 1.33 ± 0.19 |
| A191K | 0.485 ± 0.061 |
